The text below walks through data of patent US20100093076A1, “SOLUBLE IL-27 RECEPTOR” (priority 2006, published 2010).

As a reminder, the Kd is the concentration at which binding is half-saturated. High values mean lower affinity, low ones higher affinity. Usually IC50 stands for the concentration needed to halve the response being measured.

The target in test [1] is T1, mouse ligand (single-chain IL27: EBI3 linked to IL-27 p28) (Mus musculus, UniProt O35228+Q8K3I6).
T1 construct: purchased R&D Systems
T1 sequence (O35228+Q8K3I6 with tags, fused parts or gaps): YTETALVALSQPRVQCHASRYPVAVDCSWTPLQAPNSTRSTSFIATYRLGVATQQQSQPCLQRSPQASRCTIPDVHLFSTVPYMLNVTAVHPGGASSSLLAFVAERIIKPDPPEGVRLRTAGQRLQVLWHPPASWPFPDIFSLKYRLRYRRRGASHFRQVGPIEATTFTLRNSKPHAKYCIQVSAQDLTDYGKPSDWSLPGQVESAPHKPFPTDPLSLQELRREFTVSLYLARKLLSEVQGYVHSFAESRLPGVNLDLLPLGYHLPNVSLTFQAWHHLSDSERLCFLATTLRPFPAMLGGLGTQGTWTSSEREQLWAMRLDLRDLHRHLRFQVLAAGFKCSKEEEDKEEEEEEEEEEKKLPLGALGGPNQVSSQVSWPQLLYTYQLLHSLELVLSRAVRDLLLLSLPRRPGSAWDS
The test is described as follows: Surface plasmon resonance (BIACORE 3000) kinetic rate and affinity constants. The class given is binding. The conditions noted are these: SPR. On the procedure: Kinetic rate and affinity constant values for the mouse (IL27RAm(mFc1), Example 1) and human (IL27RA-Fc5, Example 2) soluble receptors were obtained by surface plasmon resonance (SPR) using an automated instrument (BIACORE 3000; Biacore International AB, Uppsala, Sweden). The mouse soluble receptor was tested against mouse ligand (lot A1418F), and the human soluble receptor was tested against both mouse (A1426F) and human (A1534F) ligands. For determination of the kinetic rate constants for the receptor-ligand interactions, the gp130 molecule was not included as part of the receptor complex.
The IL27 ligands used in this study were single-chain molecules comprising EBI3 connected by its C-terminus to the N-terminus of IL-27 p28 via a polypeptide linker. (R&D Systems) Each of the ligands included an amino-terminal peptide tag.
For the mouse IL27RA study, the soluble receptor was captured onto the chip surface by an isotype-specific anti-mouse Fc antibody (obtained from Jackson ImmunoResearch Laboratories, Inc., West Grove, Pa.) covalently immobilized to the chip (BIACORE CM5 chip) using the standard amine coupling protocol specified by the instrument manufacturer. For the human IL27RA studies, the soluble receptor was directly and covalently immobilized to the chip via the amine coupling protocol. In all studies, ligand was injected over the active (receptor-bound) surface at varying concentrations to obtain a series of binding curves.
Experimental conditions were optimized for determination of kinetic rate constant values. The molecular densities of the soluble receptor protein loaded onto the chip surface were targeted to obtain maximum IL27 binding levels (Rmax) of ≦20 RU. The analyte (ligand) was injected over the receptor surface at a flow rate of […] at a concentration range of approximately 0.05 to 10 nM, allowing for an association phase of 3 minutes and a dissociation phase of 10 minutes. […]
All data were assessed using software provided with the instrument (BIACORE Evaluation software v. 3.2). […]
In general terms: Surface plasmon resonance follows binding to a sensor surface in real time, without labels.

A further test has as its target T2, huIL-27 (Homo sapiens, UniProt Q14213+Q8NEV9).
T2 construct: purchased R&D Systems
T2 sequence (Q8NEV9 29-243): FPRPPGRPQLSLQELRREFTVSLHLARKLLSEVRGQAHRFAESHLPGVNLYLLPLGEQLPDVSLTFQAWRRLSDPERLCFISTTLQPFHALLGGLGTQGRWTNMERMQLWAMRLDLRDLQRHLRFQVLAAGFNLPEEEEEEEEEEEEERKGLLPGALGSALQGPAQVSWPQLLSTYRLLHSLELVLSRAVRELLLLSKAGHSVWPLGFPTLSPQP
T2 sequence (Q14213 21-229): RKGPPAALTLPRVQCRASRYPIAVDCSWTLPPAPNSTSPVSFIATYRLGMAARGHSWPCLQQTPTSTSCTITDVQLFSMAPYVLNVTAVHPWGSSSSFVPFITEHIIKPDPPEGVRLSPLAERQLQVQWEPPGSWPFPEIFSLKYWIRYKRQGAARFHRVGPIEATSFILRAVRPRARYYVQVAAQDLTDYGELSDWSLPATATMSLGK
The test is described as follows: Phospho-STAT3 (BIO-PLEX) neutralization of IL-27 by soluble receptors, total human PBMCs. The class given is cell-based. The conditions noted are these: ligand huIL-27 at EC90 (2 nM). The text has this: Whole mouse spleens were harvested from C57 B1/6 mice and washed two times with 1×PBS before being plated out at 2×10^5 cells/well in assay media (RPMI 1640 plus 10% fetal bovine serum) in 96-well, round-bottom tissue culture plates. Total human PBMC (peripheral blood mononuclear cells) were thawed from a frozen vial collected from a leukapherisis donation and washed two times with 1×PBS before being plated out at 10^6 cells/well in assay media in 96-well, round-bottom tissue culture plates. […] Following pre-incubation, treatments were added to the plates containing the cells and incubated together at 37° C. for 15 minutes.
Following incubation, cells were washed with ice-cold wash buffer (BIO-PLEX Cell Lysis Kit, BIO-RAD Laboratories, Hercules, Calif.) and put on ice to stop the reaction according to manufacturer's instructions. […]
Capture beads (BIO-PLEX Phospho-Stat3 Assay, BIO-RAD Laboratories) were combined with 50 μL of 1:1 diluted lysates and added to a 96-well filter plate according to manufacture's instructions (BIO-PLEX Phosphoprotein Detection Kit, BIO-RAD Laboratories). […] After the final wash, beads were resuspended in 125 μL/well of bead suspension buffer, shaken for 30 seconds, and read on an array reader (BIO-PLEX, BIO-RAD Laboratories) according to the manufacture's instructions. Data were analyzed using analytical software (BIO-PLEX MANAGER 3.0, BIO-RAD Laboratories). […]

B1: IL-27RAm(mFc1): Extracellular domain of mouse IL27RA fused to a wild type BALB/c mouse gamma2a constant region Fc tag (protein)
chain: MNRLERVALARLETPRLEGLLELELESLEMSLELELEGTRPRHGSPRGPRLEQCYSVGPRLEGILENCSWGLPRLEGDLEGLTPRPRVLEYHQSQKYHPRNRVWGLVKVPRSKQSWVTIPRRGLQFTMADKLELEIWGTQKGRPRLEWSSVSVASNLEGLTQMKPRDTPRQIFSQVASPISGLGLATLEGLATVQWAPRPRVWPRPRQKALETCQFRYKGLCQAGLAWTRLEGLPRQLEKTDGLETPRVGLMQNLEGLPRGTCYQVSGRCQVGLNGYPRWGGLWSSPRLESFQTPRFLEDPRGLDVWVSGTVCGLTSGKRAALELEVWKDPRRPRCVQVTYTVWFGAGDITTTQGLGLVPRCCKSPRVPRAWMGLWAVVSPRGNSTSWVPRPRTNLESLEVCLEAPRGLSAPRCDVGVSSADGSPRGIKVTWKQGTARGSPRLEGLYVVASPWAQDGDSLEDKLENWTRLEPRPRGNLESTLELEPRGGLFKGGVPRYRITVTAVYSGGLEAAAPRSVWGFRGLGLLEVPRLEAGPRAVWRLEPRDDPRPRGTPRVVALAWGGLVPRRHQLERGQATHYTFCIQSRGLESTVCRNVSSQTQTATLEPRNLEHSGSFKLEWVTVSTVALAGQGPRPRGPRDLESLEHLEPRDNRIRWKALEPRWFLESLEWGLELELEMGCGLESLEASTRCLEQARCLEHWRHKLELEPRQWIWGLRVPRDPRANSNSGQPRYIKGLVSLEPRQPRPRKDGPRILEGLVGLGLVGLLEQPRVVGLSPRKASAPRIYSGYGLKHFLEPRTPRGLGLLEGLELEV
modifications: left off: a dimerising Fc or GST
notes: Extracellular domain of mouse IL27RA fused to a wild type BALB/c mouse gamma2a constant region Fc tag
For the molecule B1, in test [1] (1:1 binding model), the ka amounted to 1e+07 M⁻¹ s⁻¹ and the kd is 0.0012 s⁻¹. The affinity in test [1] (Kd=kd/ka), expressed as Kd, was 0.12 nM. Also, the IC50 with huIL-27 is 1370 nM.
